B1: Saccharomyces cerevisiae mitochondrial manganese superoxide dismutase (ScMnSOD) (enzyme, UniProt P00447 27-233, looked up)
chain: KVTLPDLKWDFGALEPYISGQINELHYTKHHQTYVNGFNTAVDQFQELSDLLAKEPSPANARKMIAIQQNIKFHGGGFTNHCLFWENLAPESQGGGEPPTGALAKAIDEQFGSLDELIKLTNTKLAGVQGSGWAFIVKNLSNGGKLDVVQTYNQDTVTGPLVPLVAIDAWEHAYYLQYQNKKADYFKAIWNVVNWKEASRRFDAGKI

Tests used:
[1] = target: Candida albicans cytosolic manganese superoxide dismutase (CaMnSODc) (Candida albicans); test: crystal structure
[2] = target: Candida albicans cytosolic manganese superoxide dismutase (CaMnSODc) (Candida albicans); test: SEC
[3] = target: Candida albicans cytosolic manganese superoxide dismutase (CaMnSODc) (Candida albicans); test: crystal structure; remark: listed apart in the source
SEC = target: the molecule itself; test: SEC

Row | Molecule | stoichiometry N [1] | stoichiometry N [2] | stoichiometry N [3] | stoichiometry N (SEC)
1 | Candida albicans cytosolic manganese superoxide dismutase (CaMnSODc) (enzyme) | 2 | 2 | 4 | 
2 | B1 |  |  |  | 4
